Reference: US20030040094A1

Experiments:
[1] = target: bovine aorta ATPDase type II (78 KDa catalytic unit) (bovine) (UniProt O18956); experiment: precipitation of ADPase activity with lectin-agarose
[2] = target: bovine aorta ATPDase type II (78 KDa catalytic unit) (bovine) (UniProt O18956); experiment: precipitation with lectin-agarose, elution with Me-alpha-D-mannopyranoside
[3] = target: bovine aorta ATPDase type II (78 KDa catalytic unit) (bovine) (UniProt O18956); experiment: precipitation with lectin-agarose, elution with D-GlcNAc

Chain of UniProt O18956 (O18956 whole entry, form in doubt): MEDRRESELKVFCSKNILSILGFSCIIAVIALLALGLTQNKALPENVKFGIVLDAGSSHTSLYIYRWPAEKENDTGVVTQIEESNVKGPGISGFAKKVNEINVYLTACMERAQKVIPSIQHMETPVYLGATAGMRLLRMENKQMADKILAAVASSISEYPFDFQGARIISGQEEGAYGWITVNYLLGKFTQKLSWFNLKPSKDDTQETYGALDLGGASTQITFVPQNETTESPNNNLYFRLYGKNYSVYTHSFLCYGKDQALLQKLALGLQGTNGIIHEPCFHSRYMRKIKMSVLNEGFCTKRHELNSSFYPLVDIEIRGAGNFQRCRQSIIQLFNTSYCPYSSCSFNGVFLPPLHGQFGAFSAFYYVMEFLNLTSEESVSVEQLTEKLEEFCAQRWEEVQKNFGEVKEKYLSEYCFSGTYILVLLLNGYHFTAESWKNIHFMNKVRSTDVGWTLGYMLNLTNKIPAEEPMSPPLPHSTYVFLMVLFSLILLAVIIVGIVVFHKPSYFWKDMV

| Substance | Relative ADPase activity, Bound fraction [1] [%] | Relative ADPase activity, Supernatant (unbound) fraction [1] [%] | Relative ADPase activity, Eluted fraction [2] [%] | Relative ADPase activity, Eluted fraction [3] [%] |
| --- | --- | --- | --- | --- |
| Con A conjugated to agarose (from UniProt P02866) | 95 | 5 | 62 |  |
| WGA conjugated to agarose (from UniProt P10968 27-197) | 95 | 5 |  | 69 |
